Assay results reported in publication PMC11697773.

How the values were obtained:
[1] = biological target: human neonatal Fc receptor (FcRn) (human) (UniProt P55899); assay: BLI; Octet; biotinylated human FcRn on streptavidin-coated biosensors, antibody soluble; equilibrium binding; PBSA pH 5.6; tips regenerated in PBSA pH 7.4
[2] = biological target: human Fcγ receptor I (FcγRI) (human) (UniProt P12314); assay: BLI; Octet; biotinylated human FcγRI on streptavidin-coated biosensors, antibody soluble; equilibrium binding; PBSA pH 7.4; tips regenerated in 0.1 M glycine pH 3.5
Sequence of human Fcγ receptor I (FcγRI) (human) (P12314 16-292): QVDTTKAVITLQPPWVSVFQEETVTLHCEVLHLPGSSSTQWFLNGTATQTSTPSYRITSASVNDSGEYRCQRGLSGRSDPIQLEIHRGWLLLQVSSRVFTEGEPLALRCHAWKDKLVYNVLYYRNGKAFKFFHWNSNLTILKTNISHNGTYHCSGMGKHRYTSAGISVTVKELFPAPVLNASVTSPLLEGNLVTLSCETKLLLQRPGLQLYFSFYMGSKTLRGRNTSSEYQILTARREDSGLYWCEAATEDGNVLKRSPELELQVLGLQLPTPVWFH

Kd [2]	Substance	Kd [1]
105 nM	F5111 antibody, N297A	132 nM
	trastuzumab N297G + YTE + SEFL (aglycosylated variant) (antibody)	20.4 nM
